Experiment [1] deals with T1, human CD28 (human, UniProt P10747 19-220). Kind of experiment: cell-based or functional assay.
The target of experiment [2] is T1, human CD28. As to the kind of experiment: cell-based or functional assay. This is another data set of the same source.
In experiment [3] the target is T1, human CD28. As to the kind of experiment: cell-based or functional assay. This is another data set of the same source.
Experiment [4] concerns the target T2, recombinant human CD28/Fc Chimera (human, UniProt P10747 19-152).
T2 construct: bought from R&D Systems; Fc part of the bought chimera not given
As to the kind of experiment: BIAcore, CM5 chip coated with 12500 RU of CD28-Fc.

Experiment [5] has as its target T1, human CD28. As to the kind of experiment: cell-based or functional assay. The source holds these as a separate data set.
Experiment [6] concerns the target T1, human CD28. As to the kind of experiment: cell-based or functional assay. The source holds these as a separate data set.

Results on 28 molecules are retold here after patent US20130109846A1 (published 2013).

Residue numbers refer to the chain shown, from its start. In names and notes the source's numbering stands.

B1: 1h-99-237 (other)
VH: EVQLLESGGGLVQPGGSLRLSCAASGFTFDSANMSWARQAPGKGLEWVSWIEAPGVQTFYADSVRGRFTISRDNSKNTLYLQMNSLRAEDTAVYYCARSPFGPLYGFDYRGQGTLVTVSS
Regarding B1, in the experiment with human CD28 [1], the “Luciferase assay (EC50)” value was 3 nM and the “MLR assay (EC50)” value stood at 3 nM. In the experiment with human CD28 [2], the “DC-MLR Assay (EC50 nM)” value worked out at 3 nM and the “Luciferase assay (EC50 nM)” value was found to be 3 nM.

B2: 1h-99-2 (other)
VH: B1 VH with A37V, A53D, P54T, V56T, R65K, R98K
For the molecule B2, in the experiment with human CD28 [1], the “Luciferase assay (EC50)” value was 17 nM and the “MLR assay (EC50)” value amounted to 13 nM. For the same molecule, in the experiment with human CD28 [2], the “DC-MLR Assay (EC50 nM)” value stood at 13 nM and the “Luciferase assay (EC50 nM)” value came to 17 nM.

B3: 1h-99-238 (other)
VH: B1 VH with P54S, R65K, R98K
For B3, in the experiment with human CD28 [1], the “Luciferase assay (EC50)” value worked out at 3 nM and the “MLR assay (EC50)” value was found to be 5 nM. In addition, in the experiment with human CD28 [2], the “DC-MLR Assay (EC50 nM)” value was determined as 5 nM and the “Luciferase assay (EC50 nM)” value was determined as 3 nM.

B4: 1h-99-265 (other)
VH: B1 VH with S31K, A32S, P54S, R65K, R98K
Regarding B4, in the experiment with human CD28 [1], the “Luciferase assay (EC50)” value came out at 4 nM and the “MLR assay (EC50)” value came to 3 nM. In the experiment with human CD28 [3], the “IFNγ (EC50 nM), DC-driven MLR” value is 4.6 nM; the “IL-2 (EC50 nM), DC-driven MLR” value was found to be 2.4 nM; the “TNFα (EC50 nM), DC-driven MLR” value worked out at 3.6 nM.

B5: DOM21-18 (other)
VL: DIQMTQSPSSLSASVGDRVTITCRASQYIGTSLNWYQQKPGKAPKLLTYQASLLQSGVPSRFSGSGSGTDFTLTISSLQPEDFATYYCQQLALRPMTFGQGTKVEIKR
notes: VK dAb
Regarding B5, the binding result in experiment [4] is “binds”.

B6: DOM21-20 (other)
VH: EVQLLESGGGLVQPGGSLRLSCAASGFTFPAYSMIWVRQAPGKGLEWVSTISPLGYSTYYADSVKGRFTISRDNSKNTLYLQMNSLRAEDTAVYYCAEQTAYLNRATEHFDYWGQGTLVTVSS
notes: VH dAb
In the case of B6, the binding result in experiment [4] is listed as “binds”.

B7: DOM21-38 (other)
VH: EVQLLESGGGLVQPGGSLRLSCAASGFTFILYDMQWVRQAPGKGLEWVSRISANGHDTYYADSVKGRFTISRDNSKNTLYLQMNSLRAEDTAVYYCAKGPHYLFDYWGQGTLVTVSS
notes: VH dAb
Consider B7, for which the binding result in experiment [4] is “binds”.

B8: DOM21-4 (other)
VH: EVQLLESGGGLVQPGGSLRLSCAASGFTFSRYHMAWVRQAPGKGLEWVSVIDSLGLQTYYADSVKGRFTISRDNSKNTLYLQMNSLRAEDTAVYYCAEYGGAFDYWGQGTLVTVSS
notes: VH dAb
Turning to B8, in experiment [4], the binding result is listed as “binds”.

B9: DOM21-22 (other)
VH: EVQLLESGGGLVQPGGSLRLSCAASGFTFELYQMGWVRQAPGKGLEWVSTIMPSGNLTYYADSVKGRFTISRDNSKNTLYLQMNSLRAEDTAVYYCAKMWSLNLGFHAAFDYWGQGTLVTVSS
notes: VH dAb
Consider B9, for which the binding result in experiment [4] was “binds”.

B10: DOM21-6 (other)
VH: EVQLLESGGGLVQPGGSLRLSCAASGFTFENYGMAWVRQAPGKGLEWVSNIGRAGSVTYYADSVKGRFTISRDNSKNTLYLQMNSLRAEDTAVYYCAKVQSWRTFDYWGQGTLVTVSS
notes: VH dAb
Consider B10, for which the binding result in experiment [4] is “binds”.

B11: 1h-239-8 (other)
VL: DIQMTQSPSSLSASVGDRVTITCRASQSIYPFLEWYQQKPGKAPKLLIYFTSRLQSGVPSRFSGSGSGTDFTLTISSLQPEDFATYYCLQNVTNPATFSQGTKVEIKR
B11: the “Luciferase assay (EC50)” value in the experiment with human CD28 [1] came out at 10 nM. Moreover, in the experiment with human CD28 [2], the “DC-MLR Assay (EC50 nM)” value was 13 nM and the “Luciferase assay (EC50 nM)” value worked out at 10 nM.

B12: 1h-239-891 (other)
VL: B11 VL with Q27R, S28P, Y30W, Q55R, S56H, T93A
With B12, in the experiment with human CD28 [2], the “DC-MLR Assay (EC50 nM)” value worked out at 0.5 nM and the “Luciferase assay (EC50 nM)” value was 0.2 nM. In addition, in the experiment with human CD28 [3], the “IFNγ (EC50 nM), DC-driven MLR” value worked out at 0.2 nM; the “IL-2 (EC50 nM), DC-driven MLR” value was 0.1 nM; the “TNFα (EC50 nM), DC-driven MLR” value stood at 0.2 nM. Besides, in the experiment with human CD28 [5], the “CD80 CHO (EC50 nM), T cell proliferation” value turned out to be 0.3 nM and the “CD86 CHO (EC50 nM), T cell proliferation” value was 0.4 nM.

B13: 1h-239-891(S9C) 40K branched PEG (other)
VL: B11 VL with S9C, Q27R, S28P, Y30W, Q55R, S56H, T93A
modifications: 40K branched PEG; engineered cysteine S9C
For the molecule B13, in the experiment with human CD28 [2], the “DC-MLR Assay (EC50 nM)” value was determined as 1.3 nM.

B14: 1h-239-891(D70C) 30K linear PEG (other)
VL: B11 VL with Q27R, S28P, Y30W, Q55R, S56H, D70C, T93A
modifications: 30 kDa linear PEG; engineered cysteine D70C
Regarding B14, the “DC-MLR Assay (EC50 nM)” value with human CD28 [2] is 1.2 nM. In the experiment with human CD28 [3], the “IFNγ (EC50 nM), DC-driven MLR” value stood at 0.6 nM; the “IL-2 (EC50 nM), DC-driven MLR” value came out at 0.6 nM; the “TNFα (EC50 nM), DC-driven MLR” value worked out at 0.6 nM. In the experiment with human CD28 [5], the “CD80 CHO (EC50 nM), T cell proliferation” value amounted to 1 nM and the “CD86 CHO (EC50 nM), T cell proliferation” value stood at 0.5 nM.

B15: 1h-239-891(D70C) 40K branched PEG (other)
VL: B11 VL with Q27R, S28P, Y30W, Q55R, S56H, D70C, T93A
modifications: 40 kDa branched PEG; engineered cysteine D70C
For B15, the “DC-MLR Assay (EC50 nM)” value with human CD28 [2] came to 2.3 nM. In the experiment with human CD28 [3], the “IFNγ (EC50 nM), DC-driven MLR” value was found to be 2.5 nM; the “IL-2 (EC50 nM), DC-driven MLR” value is 1.5 nM; the “TNFα (EC50 nM), DC-driven MLR” value amounted to 1.7 nM. In the experiment with human CD28 [5], the “CD80 CHO (EC50 nM), T cell proliferation” value is 0.4 nM and the “CD86 CHO (EC50 nM), T cell proliferation” value came to 0.4 nM. For the same molecule, in the experiment with human CD28 [6], the “EC50 of T cell proliferation, Monocytes as APC” value was found to be 10.

B16: 1h-239-891(K42C) 40K branched PEG (other)
VL: B11 VL with Q27R, S28P, Y30W, K42C, Q55R, S56H, T93A
modifications: 40K branched PEG; engineered cysteine K42C
For the molecule B16, the “DC-MLR Assay (EC50 nM)” value in the experiment with human CD28 [2] was 13 nM.

B17: 1h-239-850 40K linear PEG (other)
VL: B11 VL with Q27R, S28P, Y30W, T93S, N94M
modifications: 40K linear PEG; site of attachment not stated
On to B17, for which, in the experiment with human CD28 [2], the “DC-MLR Assay (EC50 nM)” value came out at 4 nM and the “Luciferase assay (EC50 nM)” value was 2 nM.

B18: 1h-239-891(Q3C) 40K branched PEG (other)
VL: B11 VL with Q3C, Q27R, S28P, Y30W, Q55R, S56H, T93A
modifications: 40K branched PEG; engineered cysteine Q3C
In the case of B18, in the experiment with human CD28 [2], the “DC-MLR Assay (EC50 nM)” value is 1.5 nM.

B19: 1h-239-891(Q79C) 40K branched PEG (other)
VL: B11 VL with Q27R, S28P, Y30W, Q55R, S56H, Q79C, T93A
modifications: 40K branched PEG; engineered cysteine Q79C
Take B19: the “DC-MLR Assay (EC50 nM)” value in the experiment with human CD28 [2] was determined as 4.9 nM.

B20: 1h-239-890 (other)
VL: B11 VL with Q27R, S28P, Y30W, Q55A, S56R, T93A
On to B20, for which, in the experiment with human CD28 [3], the “IFNγ (EC50 nM), DC-driven MLR” value was 0.3 nM; the “IL-2 (EC50 nM), DC-driven MLR” value amounted to 0.1 nM; the “TNFα (EC50 nM), DC-driven MLR” value worked out at 0.2 nM.

B21: 1h-239-891(G41C) 40K branched PEG (other)
VL: B11 VL with Q27R, S28P, Y30W, G41C, Q55R, S56H, T93A
modifications: 40K branched PEG; engineered cysteine G41C
B21: in the experiment with human CD28 [2], the “DC-MLR Assay (EC50 nM)” value is 2 nM.

B22: 1h-239-891(S60C) 40K branched PEG (other)
VL: B11 VL with Q27R, S28P, Y30W, Q55R, S56H, S60C, T93A
modifications: 40K branched PEG; engineered cysteine S60C
Turning to B22, the “DC-MLR Assay (EC50 nM)” value with human CD28 [2] is 1.2 nM.

B23: 1h-239-850 (other)
VL: B11 VL with Q27R, S28P, Y30W, T93S, N94M
Take B23: in the experiment with human CD28 [1], the “Luciferase assay (EC50)” value was 9 nM and the “MLR assay (EC50)” value is 2 nM. For the same molecule, in the experiment with human CD28 [2], the “DC-MLR Assay (EC50 nM)” value came to 2 nM and the “Luciferase assay (EC50 nM)” value amounted to 9 nM.

B24: 1h-239-896 (other)
VL: B11 VL with Q27R, S28P, Y30W, Q55A, S56R, T93Q, N94M
In the case of B24, in the experiment with human CD28 [3], the “IFNγ (EC50 nM), DC-driven MLR” value came to 0.3 nM; the “IL-2 (EC50 nM), DC-driven MLR” value amounted to 0.3 nM; the “TNFα (EC50 nM), DC-driven MLR” value turned out to be 0.3 nM.

B25: 1h-239-891(S60C) 30K linear PEG (other)
VL: B11 VL with Q27R, S28P, Y30W, Q55R, S56H, S60C, T93A
modifications: 30K linear PEG; engineered cysteine S60C
On to B25, for which the “DC-MLR Assay (EC50 nM)” value with human CD28 [2] was determined as 0.8 nM.

B26: DOM21-44 (other)
VH: EVQLLESGGGLVQPGGSLRLSCAASGFTFARYTMVWVRQAPGKGLEWVSAIHFDGRTTYYADSVKGRFTISRDNSKNTLYLQMNSLRAEDTAVYYCAKNEWASLKHFDYWGQGTLVTVSS
notes: VH dAb
With B26, in experiment [4], the binding result is “binds”.

B27: DOM21-27 (other)
VL: DIQMTQSPSSLSASVGDRVTITCRASQSIGTGLRWYQQKPGKAPMLLIYRASILQSGVPSRFSGSGSGTDFTLTISSLQPEDFATYYCQQTTLQPFTFSQGTKVEIKR
notes: VK dAb
As to B27, the binding result in experiment [4] was “binds”.

B28: DOM21-28 (other)
VL: DIQMTQSPSSLSASVGDRVTITCRASQSISHSLVWYQQKPGKAPKLLIYWASLLQSGVPSRFSGSGSGTDFTLTISSLQPEDFATYYCQQGMTTPFTFGQGTKVEIKR
notes: VK dAb
As for B28, the binding result in experiment [4] is on record as “binds”.
